Data as given in patent publication US20040213788A1 (published 2004).

How the values were obtained:
[1] = target: T1, soluble human RANKL protein (human, UniProt O14788 140-317, limits assumed, biotinylated at a 20:1 molar ratio of NHS-biotin to protein (in the competition ELISA only)); experiment: competition ELISA: inhibition of biotinylated shRANKL (0.43 nM) binding to coated RANK-Fc
T1 construct: Soluble form; Biotinylated in the ELISA, unlabelled in the cell assays; also called shRANKL; sRANKL
T1 sequence (looked up): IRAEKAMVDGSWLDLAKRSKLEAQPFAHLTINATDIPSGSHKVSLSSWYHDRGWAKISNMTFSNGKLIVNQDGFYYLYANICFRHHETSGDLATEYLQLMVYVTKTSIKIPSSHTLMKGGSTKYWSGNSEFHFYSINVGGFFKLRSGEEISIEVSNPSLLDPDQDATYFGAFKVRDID
Source text: (§1) A. A competition ELISA was established using a human RANK-Fc fusion protein coated on plastic and a biotinylated soluble human RANKL protein for detection in solution. The RANK-FC and RANKL proteins were produced in CHO cells and Pichia pastoris, respectively, and purified to >90% homogeneity. The shRANKL (soluble, human RANKL) protein was biotinylated at a 20:1 molar ratio of NHS-biotin to protein (Pierce, Rockford, Ill.) according to the manufacturer's specifications. 96-well ELISA plates were coated overnight at 4° C. with 50 ng/well ([…]) RANK-Fc in pH 9.6 carbonate-bicarbonate buffer. Plates were washed in pH 7.4 Tris-Saline buffer containing 0.1% Tween 20 and blocked for 2 h at RT in 1% BSA/PBS. Competitor proteins (RANK-Fc; death receptor 5 (DR5)-Fc; OPG-Fc; RANKL mAb 14F3) were diluted in 0.01% Tween 20/PBS and added to wells prior to the addition of biotinylated shRANKL (0.43 nM) and the combined samples were incubated for 2 hrs at room temperature. The amount of biotinylated shRANKL bound to coated RANK-Fc (+/−competitor) was measured using alkaline phosphatase conjugated streptavidin. The substrate for signal detection was 105 PNPP (Pierce Inc., Rockford, Ill.) and absorbence measured at 405 nm using a Spectra Max 340 plate reader.

[2] = target: T1, soluble human RANKL protein; experiment: cell-based or functional assay
[3] = target: T1, soluble human RANKL protein; experiment: competition ELISA: soluble RANK-Fc inhibits biotinylated shRANKL (0.43 nM) binding to coated RANK-Fc
Source text: as §1

[4] = target: T1, soluble human RANKL protein; experiment: not described; paragraph 32 names optical biosensor analysis for Kd

Row | Binder | IC50 [1] | IC50, formation of multinuclear cells (human monocyte osteoclastogenesis) [2] | IC50 [3] | Kd [4]
1 | OPG-Fc (Fc fusion, UniProt O00300 22-201, looked up, also called osteoprotegerin-Fc; not shown: Fc part; not described) ETFPPKYLHYDEETSHQLLCDKCPPGTYLKQHCTAKWKTVCAPCPDHYYTDSWHTSDECLYCSPVCKELQYVKQECNRTHNRVCECKEGRYLEIEFCLKHRSCPPGFGVVQAGTPERNTVCKRCPDGFFSNETSSKAPCRKHTNCSVFGLLLTQKGNATHDNICSGNSESTQKCGIDVTL | ~0.5 nM |  |  | 
2 | human RANK-Fc fusion protein (Fc fusion, UniProt Q9Y6Q6 30-212, looked up, not shown: a dimerising Fc or GST) IAPPCTSEKHYEHLGRCCNKCEPGKYMSSKCTTTSDSVCLPCGPDEYLDSWNEEDKCLLHKVCDTGKALVAVVAGNSTTPRRCACTAGYHWSQDCECCRRNTECAPGLGAQHPLQLNKDTVCKPCLAGYFSDAFSSTDKCRPWTNCTFLGKRVEHHGTEKSDAVCSSSLPARKPPNEPHVYLP |  | ~0.5 µg/mL | ~6 nM | 
3 | mouse monoclonal antibody 14F3 (antibody, V domains shown, Whole mouse IgG2a/kappa purified from hybridoma; also called 14F3 mAb; RANKL mAb 14F3) VH: EVQLVESGGDLVKPGGSLKLSCAASGFTFSRYGMSWVRQTPDKRLEWVATISSGGSYTYYPDSVKGRFTISRDNAKNTLYLQMSSLKSEDTAMYYCARLDGYNYRWYFDVWGTGTTVTVSS VL: DIVMTQSHKFMSTSVGDRVSITCKASQDVSSAVAWYQQKPGQSPKLLIYSASYRYTGVPDRFTGSGSGTDFTFTISSVQAEDLAVYYCQQHYSSPRTFGGGTNLEIKR | ~2 nM | ~4 µg/mL |  | ~0.1 nM
